# Measurements as given in paper PMC11772769, “Selective cargo and membrane recognition by SNX17 regulates its interaction with Retriever” (EMBO Reports, 2024).
# Biological target: Peptide SNX17_(CT-18) (UniProt Q15036)
# Test: fluorescence polarisation
substance,measurement,value
VPS26C-VPS35L_(110-598) complex (from UniProt O14972 1-297; Q7Z3J2 110-598),Kd,5.3 µM
